Data: publication PMC7650249

Columns and labels:
[1] = molecular target: activated protein C S12C/R312C mutant, labeled with AF555/AF647 (human) (UniProt P04070); test: other fluorescence titration; single molecule FRET of freely diffusing labeled protein C or APC (150 pM) titrated with thrombin S195A; shift of the peak center of the low FRET population, single-site fit; 20 mM Tris, 145 mM NaCl, 0.02% Tween 20, pH 7.5, 10 mM EDTA, 20 °C
[2] = molecular target: protein C S12C/R312C mutant, labeled with AF555/AF647 (two-chain zymogen) (human) (UniProt P04070); test: as above

Kd [1]: 1100 nM | Kd [2]: 860 nM
Substance: thrombin, catalytically inactive mutant S195A (enzyme)
